Data reported in article PMC6203356.

Biological target: CENP-A (endogenous, soluble pre-assembly fraction) (human (endogenous in SW480)) (UniProt P49450)
Experiment: co-IP; CENP-A IP (ACA serum) or mock IP from the soluble fraction (PBS, 0.5% NP-40) of SW480 cells treated 72 hours with control or HJURP siRNA; Western blot for the chaperones

Sequence of UniProt P49450 (P49450 whole entry): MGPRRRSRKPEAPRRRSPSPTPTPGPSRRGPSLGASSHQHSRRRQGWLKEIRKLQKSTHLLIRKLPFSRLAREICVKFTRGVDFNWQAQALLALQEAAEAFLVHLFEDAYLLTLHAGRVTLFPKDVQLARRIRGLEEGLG

fold increase in the amount bound to CENP-A after HJURP knockdown against control siRNA: 2.4 fold
Substance: HIRA (endogenous) (from UniProt P54198 1-1017) (natural protein)
